Source: PMC8163762, “Impact of DNA methylation on 3D genome structure”

Biological target: T1, Ume6p (Saccharomyces cerevisiae, UniProt P39001 1-836)
T1 sequence: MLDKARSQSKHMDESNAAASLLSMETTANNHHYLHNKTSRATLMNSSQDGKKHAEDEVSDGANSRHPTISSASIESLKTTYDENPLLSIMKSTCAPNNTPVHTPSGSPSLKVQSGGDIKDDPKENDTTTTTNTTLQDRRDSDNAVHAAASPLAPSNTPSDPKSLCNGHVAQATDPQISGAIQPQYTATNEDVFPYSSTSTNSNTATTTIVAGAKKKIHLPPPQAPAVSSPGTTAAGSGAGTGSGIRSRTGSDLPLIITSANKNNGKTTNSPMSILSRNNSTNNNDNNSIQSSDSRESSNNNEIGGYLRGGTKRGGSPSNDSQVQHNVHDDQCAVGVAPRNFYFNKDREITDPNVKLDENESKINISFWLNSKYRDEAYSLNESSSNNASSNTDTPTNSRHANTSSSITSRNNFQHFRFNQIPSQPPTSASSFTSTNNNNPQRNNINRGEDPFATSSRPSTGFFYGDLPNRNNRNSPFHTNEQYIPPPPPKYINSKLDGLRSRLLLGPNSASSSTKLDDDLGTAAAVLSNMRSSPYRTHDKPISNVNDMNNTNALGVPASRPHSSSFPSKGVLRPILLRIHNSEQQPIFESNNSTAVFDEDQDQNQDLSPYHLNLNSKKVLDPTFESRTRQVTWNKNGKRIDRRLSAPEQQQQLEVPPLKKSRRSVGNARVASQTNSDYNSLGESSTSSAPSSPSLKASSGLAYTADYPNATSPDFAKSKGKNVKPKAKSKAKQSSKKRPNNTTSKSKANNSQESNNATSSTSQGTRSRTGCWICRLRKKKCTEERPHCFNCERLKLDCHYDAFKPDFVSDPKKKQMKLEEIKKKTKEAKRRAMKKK
Assay: EMSA; EMSA buffer and temperature not given in material; protein dialyzed in 10 mM sodium phosphate pH 7.4, 50 mM NaCl, 10 uM ZnCl2
Conditions: protein: recombinant; tags: N-terminal 6xHis (pET14b); label: Cy5 on forward oligo

B1: SPO13 URS1 probe, unmethylated (Spo13-Cy5-F/Spo13-R) (dsDNA)
DNA 1: TTAATTAGGAGTATATTGAGAAATAGCCGCCGACAAAAAGGAAGTCTCATAAAAGT
DNA 2: ACTTTTATGAGACTTCCTTTTTGTCGGCGGCTATTTCTCAATATACTCCTAATTAA
Q: Does B1 bind?
A: binds
